Assay results reported in publication PMC11091212.

Columns and labels:
[1] = target: Microfibril-associated glycoprotein 4 (human) (UniProt P55083); assay: SPR; Ca2+ form (octamer): MFAP4 or MFAP4_(C34S) amine-coupled on CM5 (Biacore X), elastogenic proteins as analytes 5-100 µg/mL in TBS/Ca2+ (2 mM CaCl2); 1:1 Langmuir fit, KD is the average over five concentrations
[2] = target: Microfibril-associated glycoprotein 4 (human) (UniProt P55083); assay: SPR; Ca2+; conditions: domain or fragment

Chain of Microfibril-associated glycoprotein 4 (human) (P55083 22-255): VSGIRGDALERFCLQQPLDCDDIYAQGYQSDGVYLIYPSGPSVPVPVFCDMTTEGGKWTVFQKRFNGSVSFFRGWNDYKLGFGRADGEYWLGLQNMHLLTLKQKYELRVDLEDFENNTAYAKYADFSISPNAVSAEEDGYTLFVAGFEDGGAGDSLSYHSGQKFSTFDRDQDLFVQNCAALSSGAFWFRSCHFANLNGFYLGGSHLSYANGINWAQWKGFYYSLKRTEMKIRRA

Substance | Kd [1] [nM] | Kd [2] [nM]
recombinant N-terminal half of fibrillin-1 (domain or fragment) | 1.8 | 
N-terminal half of LTBP4S |  | 16
latent transforming growth factor beta binding protein-4, short isoform (natural protein) | 15 | 
